Assay results taken from patent US7811561 (dated 2010).

T1: cdk4 (UniProt P30285 2-303)
T1 sequence (looked up): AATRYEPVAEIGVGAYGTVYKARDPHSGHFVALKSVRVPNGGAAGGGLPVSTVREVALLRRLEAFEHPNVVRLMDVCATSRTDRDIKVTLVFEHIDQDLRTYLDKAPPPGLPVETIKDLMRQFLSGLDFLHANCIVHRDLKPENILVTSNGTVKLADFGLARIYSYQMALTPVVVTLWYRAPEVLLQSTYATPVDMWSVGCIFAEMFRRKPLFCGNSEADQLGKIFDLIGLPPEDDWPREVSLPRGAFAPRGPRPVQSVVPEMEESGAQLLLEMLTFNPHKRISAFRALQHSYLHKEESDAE

B1: cdk6 (protein)
chain: MEKDSLSRADQQYECVAEIGEGAYGKVFKARDLKNGGRFVALKRVRVQTSEEGMPLSTIREVAVLRHLETFEHPNVVRLFDVCTVSRTDRETKLTLVFEHVDQDLTTYLDKVPEPGVPTETIKDMMFQLLRGLDFLHSHRVVHRDLKPQNILVTSSGQIKLADFGLARIYSFQMALTSVVVTLWYRAPEVLLQSSYATPVDLWSVGCIFAEMFRRKPLFRGSSDVDQLGKILDIIGLPGEEDWPRDVALPRQAFHSKSAQPIEKFVTDIDELGKDLLLKCLTFNPAKRISAYGALNHPYFQDLERYKDNLNSHLPSNQSTSELNTA
B2: MCT-1 (Multiple Copies in T-cell malignancy) protein (other)
chain: MFKKFDEKENVSNCIQLKTSVIKGIKNQLIEQFPGIEPWLNQIMPKKDPVKIVRCHEHIEILTVNGELLFFRQREGPFYPTLRLLHKYPFILPHQQVDKGAIKFVLSGANIMCPGLTSPGAKLYPAAVDTIVAIMAEGKQHALCVGVMKMSAEDIEKVNKGIGIENIHYLNDGLWHMKTYK
notes: Expressed from the full length MCT-1 cDNA (pCMV-MCT-1) in stably transfected NIH 3T3 fibroblasts and tested in cell lysates
B3: cdk4 (protein)
chain: T1 sequence (looked up)

Key:
[1] = molecular target: GST-RB (source of Rb protein substrate)
[2] = molecular target: T1, cdk4; assay: co-immunoprecipitation and immunoblotting, NIH 3T3 cell lysates
Protocol: (§1) TBS was Tris-buffered saline containing 0.1% (w/v) sodium dodecyl sulfate. Samples were pre-cleared with Protein-G beads (GIBCO, Grand Island, N.Y.) and either normal rabbit or mouse serum (each at a 1:1000 dilution). Immunoprecipitation of cyclin D1 was carried out for 12 hours at 4° C. Immune complexes were precipitated using 1 to 5 micrograms of antibody and Protein-G agarose, and were then heated at 95° C. for 5 minutes in IP buffer, which comprised 93 millimolar Tris, 3% (w/v) SDS, 1.1 millimolar β-mercaptoethanol, 0.03% (w/v) bromophenol blue (BPB), and 15% (v/v) glycerol (SIGMA, Saint Louis, Mo.) at a pH of 6.8. The eluant was analyzed using a denaturing, reducing SDS-PAGE gel, and the contents of the gel were transferred to supported nitrocellulose filter by electroblotting. Filters were incubated with 1 to 5 micrograms of an antibody which binds specifically with one of the following: cyclin D1, cdk4, cdk6, PCNA, and p21. Horseradish peroxidase-linked anti-mouse or anti-rabbit whole antibody was used as a secondary antibody. Chemiluminescence was detected using an ECL™ kit (Amersham Life Science, Arlington Heights, Ill.) according to the manufacturer's instruction.
(§2) An increased level of cyclin D1 protein was detected by immunoprecipitation in lysates from NIH 3T3 cells transfected with PCMV-MCT-1, relative to asynchronously grown control cells which were not transfected or which were transfected with control vector. Because cdk4 and cdk6 associate with cyclin D1 during cell cycle progression, complex formation among these molecules was investigated using co-immunoprecipitation analysis. Increased subunit complex formation in NIH 3T3 cells constitutively expressing MCT-1, relative to cells which were not transfected with a vector encoding MCT-1. Physical interaction of PCNA with cyclin D1-cdk4/cdk6 complexes was also investigated. Co-immunoprecipitation of cyclin D1 and PCNA was detected at an increased level, relative to cells which were not transfected with a vector encoding MCT-1. Direct physical interaction was not detected between MCT-1 and any of proteins cyclin D1, cdk4, cdk6, and PCNA under these assay conditions.

[3] = molecular target: T2, cyclin D1 (UniProt P25322 1-295); assay: as above
T2 construct: Immunoprecipitated from NIH 3T3 lysates
Protocol: as §1, §2

[4] = molecular target: PCNA (UniProt P17918 1-261); assay: as above
Protocol: as §1, §2

[5] = molecular target: cdk6 (UniProt Q64261 1-326); assay: as above
Protocol: as §1, §2

Sequence of PCNA (P17918 whole entry): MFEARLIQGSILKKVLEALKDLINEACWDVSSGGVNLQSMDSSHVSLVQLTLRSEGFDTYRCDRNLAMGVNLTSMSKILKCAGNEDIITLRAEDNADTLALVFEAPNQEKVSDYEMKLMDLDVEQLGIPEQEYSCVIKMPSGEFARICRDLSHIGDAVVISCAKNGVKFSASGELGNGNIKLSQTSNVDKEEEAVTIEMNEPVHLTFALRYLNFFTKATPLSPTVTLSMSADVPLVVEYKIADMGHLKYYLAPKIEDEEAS
T2 sequence (P25322 whole entry): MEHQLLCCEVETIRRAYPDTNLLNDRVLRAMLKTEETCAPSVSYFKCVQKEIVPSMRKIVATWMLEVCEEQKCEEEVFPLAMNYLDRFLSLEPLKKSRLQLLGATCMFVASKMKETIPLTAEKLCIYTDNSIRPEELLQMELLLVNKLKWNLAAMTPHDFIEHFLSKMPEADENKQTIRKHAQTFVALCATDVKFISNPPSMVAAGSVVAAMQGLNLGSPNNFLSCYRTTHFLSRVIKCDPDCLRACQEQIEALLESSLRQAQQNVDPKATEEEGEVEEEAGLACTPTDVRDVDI

Binder | in vitro immune complex kinase assay (32P phosphorylation of Rb protein) [1] | binding result [2] | binding result [3] | binding result [4] | binding result [5]
B1 | A markedly increased ability to phosphorylate Rb protein | – | – | – | –
B2 | – | no binding | no binding | no binding | no binding
B3 | A markedly increased ability to phosphorylate Rb protein | – | – | – | –
